Experimental data from the supplement of paper PMC11246515.
± gives the standard deviation of the averaged measurements.

Experiment: total protein half-life in vivo (active degradation + dilution); higher = more stable protein
[1] = E. coli NCM3722 delta-clpP delta-lon delta-hslV, growth: N-lim chemostat, doubling time 6 h
[2] = E. coli NCM3722 delta-clpP, growth: N-lim chemostat, doubling time 6 h
[3] = E. coli NCM3722 delta-hslV, growth: N-lim chemostat, doubling time 6 h
[4] = E. coli NCM3722 delta-lon, growth: N-lim chemostat, doubling time 6 h
[5] = E. coli NCM3722 delta-smpB, growth: N-lim chemostat, doubling time 6 h
[6] = wild type E. coli NCM3722, growth: C-lim chemostat, doubling time 3 h
[7] = wild type E. coli NCM3722, growth: C-lim chemostat, doubling time 12 h
[8] = wild type E. coli NCM3722, growth: N-lim chemostat, doubling time 6 h
[9] = wild type E. coli NCM3722, growth: N-lim chemostat, doubling time 12 h
[10] = wild type E. coli NCM3722, growth: P-lim chemostat, doubling time 6 h
[11] = wild type E. coli NCM3722, growth: C-lim chemostat, doubling time 6 h
[12] = wild type E. coli NCM3722, growth: P-lim chemostat, doubling time 12 h

MSVKVIVTDMDGTFLNDAKTYNQPRFMAQYQELKKRGIKFVVASGNQYYQLISFFPELKDEISFVAENGALVYEHGKQLFHGELTRHESRIVIGELLKDKQLNFVACGLQSAYVSENAPEAFVALMAKHYHRLKPVKDYQEIDDVLFKFSLNLPDEQIPLVIDKLHVALDGIMKPVTSGFGFIDLIIPGLHKANGISRLLKRWDLSPQNVVAIGDSGNDAEMLKMARYSFAMGNAAENIKQIARYATDDNNHEGALNVIQAVLDNTSPFNS
total protein half-life in vivo [1]: 5.01 ± 0.82 h | total protein half-life in vivo [2]: 4.02 ± 0.23 h | total protein half-life in vivo [3]: 4.38 ± 0.48 h | total protein half-life in vivo [4]: 4.38 ± 0.34 h | total protein half-life in vivo [5]: 3.98 ± 0.12 h | total protein half-life in vivo [6]: 3.71 ± 0.2 h | total protein half-life in vivo [7]: 12.38 ± 0.075 h | total protein half-life in vivo [8]: 4.31 ± 0.45 h | total protein half-life in vivo [9]: 6.96 ± 0.49 h | total protein half-life in vivo [10]: 6.13 ± 0.23 h

MKKRHLLSLLALGISTACYGETYPAPIGPSQSDFGGVGLLQTPTARMAREGELSLNYRDNDQYRYYSASVQLFPWLETTLRYTDVRTRQYSSVEAFSGDQTYKDKAFDLKLRLWEESYWLPQVAVGARDIGGTGLFDAEYLVASKAWGPFDFTLGLGWGYLGTSGNVKNPLCSASDKYCYRDNSYKQAGSIDGSQMFHGPASLFGGVEYQTPWQPLRLKLEYEGNNYQQDFAGKLEQKSKFNVGAIYRVTDWADVNLSYERGNTFMFGVTLRTNFNDLRPSYNDNARPQYQPQPQDAILQHSVVANQLTLLKYNAGLADPQIQAKGDTLYVTGEQVKYRDSREGIIRANRIVMNDLPDGIKTIRITENRLNMPQVTTETDVASLKNHLAGEPLGHETTLAQKRVEPVVPQSTEQGWYIDKSRFDFHIDPVLNQSVGGPENFYMYQLGVMGTADLWLTDHLLTTGSLFANLANNYDKFNYTNPPQDSHLPRVRTHVREYVQNDVYVNNLQANYFQHLGNGFYGQVYGGYLETMFGGAGAEVLYRPLDSNWAFGLDANYVKQRDWRSAKDMMKFTDYSVKTGHLTAYWTPSFAQDVLVKASVGQYLAGDKGGTLEIAKRFDSGVVVGGYATITNVSKEEYGEGDFTKGVYVSVPLDLFSSGPTRSRAAIGWTPLTRDGGQQLGRKFQLYDMTSDRSVNFR
total protein half-life in vivo [1]: 5.44 h | total protein half-life in vivo [4]: 6.75 ± 0.42 h | total protein half-life in vivo [5]: 5.88 ± 0.37 h | total protein half-life in vivo [7]: 12.6 h | total protein half-life in vivo [9]: 11.6 h

MSKARRWVIIVLSLAVLVMIGINMAEKDDTAQVVVNNNDPTYKSEHTDTLVYNPEGALSYRLIAQHVEYYSDQAVSWFTQPVLTTFDKDKIPTWSVKADKAKLTNDRMLYLYGHVEVNALVPDSQLRRITTDNAQINLVTQDVTSEDLVTLYGTTFNSSGLKMRGNLRSKNAELIEKVRTSYEIQNKQTQP [P0ADV9]
total protein half-life in vivo [1]: 5.91 ± 0.18 h | total protein half-life in vivo [2]: 5.86 ± 0.15 h | total protein half-life in vivo [3]: 5.92 ± 0.41 h | total protein half-life in vivo [4]: 5.82 ± 0.13 h | total protein half-life in vivo [5]: 6.78 ± 0.24 h | total protein half-life in vivo [11]: 5.98 ± 0.17 h | total protein half-life in vivo [7]: 11.2 ± 1.9 h | total protein half-life in vivo [8]: 5.55 ± 0.17 h | total protein half-life in vivo [9]: 11.1 ± 0.99 h | total protein half-life in vivo [10]: 5.85 ± 0.087 h | total protein half-life in vivo [12]: 11.98 ± 0.014 h

MNKTLIAAAVAGIVLLASNAQAQTVPEGYQLQQVLMMSRHNLRAPLANNGSVLEQSTPNKWPEWDVPGGQLTTKGGVLEVYMGHYMREWLAEQGMVKSGECPPPYTVYAYANSLQRTVATAQFFITGAFPGCDIPVHHQEKMGTMDPTFNPVITDDSAAFSEQAVAAMEKELSKLQLTDSYQLLEKIVNYKDSPACKEKQQCSLVDGKNTFSAKYQQEPGVSGPLKVGNSLVDAFTLQYYEGFPMDQVAWGEIKSDQQWKVLSKLKNGYQDSLFTSPEVARNVAKPLVSYIDKALVTDRTSAPKITVLVGHDSNIASLLTALDFKPYQLHDQNERTPIGGKIVFQRWHDSKANRDLMKIEYVYQSAEQLRNADALTLQAPAQRVTLELSGCPIDADGFCPMDKFDSVLNEAVK
total protein half-life in vivo [1]: 5.71 ± 0.47 h | total protein half-life in vivo [3]: 6.81 ± 0.17 h | total protein half-life in vivo [4]: 6.9 ± 0.04 h | total protein half-life in vivo [5]: 5.96 ± 0.12 h | total protein half-life in vivo [6]: 3.51 ± 0.45 h | total protein half-life in vivo [11]: 6.07 ± 0.17 h | total protein half-life in vivo [7]: 12 ± 1.7 h | total protein half-life in vivo [8]: 6.05 ± 0.63 h | total protein half-life in vivo [9]: 11.1 ± 1.5 h | total protein half-life in vivo [10]: 6.4 ± 1.7 h | total protein half-life in vivo [12]: 12.3 ± 1.5 h

MLELNAKTTALVVIDLQEGILPFAGGPHTADEVVNRAGKLAAKFRASGQPVFLVRVGWSADYAEALKQPVDAPSPAKVLPENWWQHPAALGATDSDIEIIKRQWGAFYGTDLELQLRRRGIDTIVLCGISTNIGVESTARNAWELGFNLVIAEDACSAASAEQHNNSINHIYPRIARVRSVEEILNAL [P0ADI7]
total protein half-life in vivo [1]: 5.53 ± 0.15 h | total protein half-life in vivo [2]: 5.05 ± 0.3 h | total protein half-life in vivo [3]: 4.968 ± 0.024 h | total protein half-life in vivo [5]: 5.08 ± 0.54 h | total protein half-life in vivo [6]: 3.07 ± 0.33 h | total protein half-life in vivo [11]: 5.75 ± 0.29 h | total protein half-life in vivo [7]: 10.9 ± 0.94 h | total protein half-life in vivo [8]: 5.19 ± 0.59 h | total protein half-life in vivo [9]: 9.838 ± 0.087 h | total protein half-life in vivo [10]: 5.81 ± 0.12 h | total protein half-life in vivo [12]: 12.7 ± 0.69 h

MSQVSLSQQLKEGNLFAEQCPSREVLKHVTSRWGVLILVALREGTHRFSDLRRKIGGVSEKMLAQSLQALEQDGFLNRIAYPVVPPHVEYSLTPLGEQVSEKVAALADWIELNLPEVLAVRDERAA [P0ACN2]
total protein half-life in vivo [1]: 4.79 h | total protein half-life in vivo [4]: 2.18 h | total protein half-life in vivo [5]: 2.12 h | total protein half-life in vivo [6]: 2.01 h | total protein half-life in vivo [11]: 3.02 ± 0.26 h | total protein half-life in vivo [7]: 3.86 h

MDSHTLIQALIYLGSAALIVPIAVRLGLGSVLGYLIAGCIIGPWGLRLVTDAESILHFAEIGVVLMLFIIGLELDPQRLWKLRAAVFGCGALQMVICGGLLGLFCMLLGLRWQVAELIGMTLALSSTAIAMQAMNERNLMVTQMGRSAFAVLLFQDIAAIPLVAMIPLLATSSASTTMGAFALSALKVAGALVLVVLLGRYVTRPALRFVARSGLREVFSAVALFLVFGFGLLLEEVGLSMAMGAFLAGVLLASSEYRHALESDIEPFKGLLLGLFFIGVGMSIDFGTLLENPLRIVILLLGFLIIKIAMLWLIARPLQVPNKQRRWFAVLLGQGSEFAFVVFGAAQMANVLEPEWAKSLTLAVALSMAATPILLVILNRLEQSSTEEAREADEIDEEQPRVIIAGFGRFGQITGRLLLSSGVKMVVLDHDPDHIETLRKFGMKVFYGDATRMDLLESAGAAKAEVLINAIDDPQTNLQLTEMVKEHFPHLQIIARARDVDHYIRLRQAGVEKPERETFEGALKTGRLALESLGLGPYEARERADVFRRFNIQMVEEMAMVENDTKARAAVYKRTSAMLSEIITEDREHLSLIQRHGWQGTEEGKHTGNMADEPETKPSS
total protein half-life in vivo [2]: 7.26 ± 1 h | total protein half-life in vivo [3]: 6.68 ± 1.4 h | total protein half-life in vivo [4]: 6.07 ± 0.42 h | total protein half-life in vivo [5]: 6.12 ± 0.22 h | total protein half-life in vivo [6]: 3.62 ± 0.14 h | total protein half-life in vivo [11]: 6.07 ± 0.45 h | total protein half-life in vivo [7]: 13.1 ± 0.2 h | total protein half-life in vivo [8]: 6.452 ± 0.033 h | total protein half-life in vivo [9]: 11.9 ± 1.1 h | total protein half-life in vivo [10]: 6.64 ± 0.37 h | total protein half-life in vivo [12]: 12.2 ± 1.2 h
